In experiment [1] the target is T1, TAP-tagged Ndc1 (S. cerevisiae, UniProt P32500 1-655).
T1 sequence (looked up): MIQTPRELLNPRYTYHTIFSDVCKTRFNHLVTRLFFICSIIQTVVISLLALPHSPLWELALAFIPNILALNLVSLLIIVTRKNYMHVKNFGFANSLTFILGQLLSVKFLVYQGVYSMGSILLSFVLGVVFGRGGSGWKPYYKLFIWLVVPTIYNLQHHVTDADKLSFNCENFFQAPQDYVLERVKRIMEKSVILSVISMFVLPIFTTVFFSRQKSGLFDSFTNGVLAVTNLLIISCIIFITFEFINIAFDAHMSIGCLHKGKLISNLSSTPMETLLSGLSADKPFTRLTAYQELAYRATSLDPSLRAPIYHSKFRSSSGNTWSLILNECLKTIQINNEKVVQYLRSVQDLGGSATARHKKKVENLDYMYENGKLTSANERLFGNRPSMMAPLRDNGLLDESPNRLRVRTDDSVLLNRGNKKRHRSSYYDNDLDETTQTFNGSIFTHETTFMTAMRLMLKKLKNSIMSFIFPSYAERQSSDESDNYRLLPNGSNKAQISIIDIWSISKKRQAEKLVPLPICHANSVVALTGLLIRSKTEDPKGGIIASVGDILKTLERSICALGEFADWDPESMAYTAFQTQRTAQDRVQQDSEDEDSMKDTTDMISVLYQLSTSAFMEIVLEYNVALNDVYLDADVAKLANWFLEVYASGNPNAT
The experiment can be described thus: pull-down.

Experiment [2] has as its target TAP-Nup170 (S. cerevisiae, UniProt P38181 1-1502). The experiment in a line: pull-down.

Chain of TAP-Nup170 (P38181 whole entry): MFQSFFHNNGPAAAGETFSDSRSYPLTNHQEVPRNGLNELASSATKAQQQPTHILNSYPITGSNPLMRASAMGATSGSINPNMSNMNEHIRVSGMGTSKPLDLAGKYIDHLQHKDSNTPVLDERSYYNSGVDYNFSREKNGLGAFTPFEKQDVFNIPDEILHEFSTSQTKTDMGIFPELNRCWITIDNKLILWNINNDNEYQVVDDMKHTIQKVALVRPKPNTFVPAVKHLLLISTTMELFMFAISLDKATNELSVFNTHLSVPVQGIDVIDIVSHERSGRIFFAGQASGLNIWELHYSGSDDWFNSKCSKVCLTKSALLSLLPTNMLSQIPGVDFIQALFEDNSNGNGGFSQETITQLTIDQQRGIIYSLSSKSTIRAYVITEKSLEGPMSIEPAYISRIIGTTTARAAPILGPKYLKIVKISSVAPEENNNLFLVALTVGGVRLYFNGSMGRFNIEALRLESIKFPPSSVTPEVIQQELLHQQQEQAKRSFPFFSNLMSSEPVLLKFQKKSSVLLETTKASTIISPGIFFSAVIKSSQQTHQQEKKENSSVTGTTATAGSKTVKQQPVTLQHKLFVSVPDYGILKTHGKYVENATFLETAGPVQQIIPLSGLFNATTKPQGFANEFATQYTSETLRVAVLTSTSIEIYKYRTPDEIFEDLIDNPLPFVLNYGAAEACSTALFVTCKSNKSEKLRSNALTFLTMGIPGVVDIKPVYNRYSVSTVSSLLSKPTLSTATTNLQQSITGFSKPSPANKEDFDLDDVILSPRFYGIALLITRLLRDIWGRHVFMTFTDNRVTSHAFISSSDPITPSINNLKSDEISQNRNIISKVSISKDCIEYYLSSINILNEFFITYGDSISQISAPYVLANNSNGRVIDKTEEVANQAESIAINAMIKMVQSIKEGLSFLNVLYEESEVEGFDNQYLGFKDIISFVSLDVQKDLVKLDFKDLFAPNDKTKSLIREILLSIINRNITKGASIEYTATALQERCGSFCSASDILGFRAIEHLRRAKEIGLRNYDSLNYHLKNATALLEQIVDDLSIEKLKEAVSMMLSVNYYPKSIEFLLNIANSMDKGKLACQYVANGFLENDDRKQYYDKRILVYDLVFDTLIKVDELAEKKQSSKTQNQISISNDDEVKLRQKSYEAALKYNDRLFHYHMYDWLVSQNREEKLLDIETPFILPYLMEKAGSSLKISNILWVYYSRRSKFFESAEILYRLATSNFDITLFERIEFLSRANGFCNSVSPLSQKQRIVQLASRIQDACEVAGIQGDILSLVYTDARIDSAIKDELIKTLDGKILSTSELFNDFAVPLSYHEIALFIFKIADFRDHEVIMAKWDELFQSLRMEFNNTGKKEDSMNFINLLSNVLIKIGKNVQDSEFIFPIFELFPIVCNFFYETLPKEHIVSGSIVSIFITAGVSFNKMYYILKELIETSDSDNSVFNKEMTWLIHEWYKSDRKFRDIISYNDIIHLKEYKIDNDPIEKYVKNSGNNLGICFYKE

B1: GST-Nup59 (natural protein, S. cerevisiae, UniProt Q05166 1-528, looked up)
chain: MFGIRSGNNNGGFTNLTSQAPQTTQMFQSQSQLQPQPQPQPQQQQQHLQFNGSSDASSLRFGNSLSNTVNANNYSSNIGNNSINNNNIKNGTNNISQHGQGNNPSWVNNPKKRFTPHTVIRRKTTKQNSSSDINQNDDSSSMNATMRNFSKQNQDSKHNERNKSAANNDINSLLSNFNDIPPSVTLQDWQREDEFGSIPSLTTQFVTDKYTAKKTNRSAYDSKNTPNVFDKDSYVRIANIEQNHLDNNYNTAETNNKVHETSSKSSSLSAIIVFGYPESISNELIEHFSHFGHIMEDFQVLRLGRGINPNTFRIFHNHDTGCDENDSTVNKSITLKGRNNESNNKKYPIFTGESWVKLTYNSPSSALRALQENGTIFRGSLIGCIPYSKNAVEQLAGCKIDNVDDIGEFNVSMYQNSSTSSTSNTPSPPNVIITDGTLLREDDNTPAGHAGNPTNISSPIVANSPNKRLDVIDGKLPFMQNAGPNSNIPNLLRNLESKMRQQEAKYRNNEPAGFTHKLSNWLFGWNDL
B1: the binding result in experiment [1] is reported as “binds”.

B2: 6xHis-MBP-Nup59 (natural protein, S. cerevisiae, UniProt Q05166 1-528, looked up)
chain: MFGIRSGNNNGGFTNLTSQAPQTTQMFQSQSQLQPQPQPQPQQQQQHLQFNGSSDASSLRFGNSLSNTVNANNYSSNIGNNSINNNNIKNGTNNISQHGQGNNPSWVNNPKKRFTPHTVIRRKTTKQNSSSDINQNDDSSSMNATMRNFSKQNQDSKHNERNKSAANNDINSLLSNFNDIPPSVTLQDWQREDEFGSIPSLTTQFVTDKYTAKKTNRSAYDSKNTPNVFDKDSYVRIANIEQNHLDNNYNTAETNNKVHETSSKSSSLSAIIVFGYPESISNELIEHFSHFGHIMEDFQVLRLGRGINPNTFRIFHNHDTGCDENDSTVNKSITLKGRNNESNNKKYPIFTGESWVKLTYNSPSSALRALQENGTIFRGSLIGCIPYSKNAVEQLAGCKIDNVDDIGEFNVSMYQNSSTSSTSNTPSPPNVIITDGTLLREDDNTPAGHAGNPTNISSPIVANSPNKRLDVIDGKLPFMQNAGPNSNIPNLLRNLESKMRQQEAKYRNNEPAGFTHKLSNWLFGWNDL
As to B2, in experiment [2], the binding result was “binds”.

B3: 6xHis-MBP-Nup53 (natural protein, S. cerevisiae, UniProt Q03790 1-475, looked up)
chain: MADLQKQENSSRFTNVSVIAPESQGQHEQQKQQEQLEQQKQPTGLLKGLNGFPSAPQPLFMEDPPSTVSGELNDNPAWFNNPRKRAIPNSIIKRSNGQSLSPVRSDSADVPAFSNSNGFNNVTFGSKKDPRILKNVSPNDNNSANNNAHSSDLGTVVFDSNEAPPKTSLADWQKEDGIFSSKTDNIEDPNLSSNITFDGKPTATPSPFRPLEKTSRILNFFDKNTKTTPNTASSEASAGSKEGASTNWDDHAIIIFGYPETIANSIILHFANFGEILEDFRVIKDFKKLNSKNMSKSPSLTAQKYPIYTGDGWVKLTYKSELSKSRALQENGIIMNGTLIGCVSYSPAALKQLASLKKSEEIINNKTSSQTSLSSKDLSNYRKTEGIFEKAKAKAVTSKVRNAEFKVSKNSTSFKNPRRLEIKDGRSLFLRNRGKIHSGVLSSIESDLKKREQASKSKKSWLNRLNNWLFGWNDL
On to B3, for which the binding result in experiment [2] is listed as “binds”.

B4: GST-Nup53(376-475) (domain or fragment, S. cerevisiae, UniProt Q03790 376-475, looked up)
chain: KDLSNYRKTEGIFEKAKAKAVTSKVRNAEFKVSKNSTSFKNPRRLEIKDGRSLFLRNRGKIHSGVLSSIESDLKKREQASKSKKSWLNRLNNWLFGWNDL
Consider B4, for which the binding result in experiment [1] is listed as “binds”.

(Values after article PMC2700399 (The Journal of Cell Biology, 2009).)
